The nature of the data set: yeast display, Sf9 membrane polyspecificity reagent, FACS + sequencing; frameworks hold sequencing errors. The gist of the method: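 Nanobodies from a synthetic yeast display library (Saccharomyces cerevisiae BJ5465), induced 36–48 hours with galactose, were stained 1 hour at 4 °C with 10% biotinylated, detergent-solubilized Sf9 membrane reagent, enriched on streptavidin microbeads, then FACS-sorted. Anti-HA (expression) and streptavidin (reagent binding) fluorescence set low and high (top ~1%) gates. Polyreactivity labels come from the gate of origin. Genes were colony-PCR amplified, MiSeq 2 × 250 sequenced and filtered by CDR length.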
On to “QVQLVEAGGGLVQAGGSLRLSCAASGRTFRYYAMRWYRQATGKERELVAAITTGSSTYYADSVKGRFTISRDNAKNTVYLQMNSLKPEDTAVYYCAADHLYWGLEYESWGQGTQVTVSS”, for which the “polyreactivity (PSR sort gate)” value is recorded as “low polyreactivity”.

Regarding “QVQLVEAGGGLVQAGGSLRLSCAPSGFICYYYGMGWYRQAPGKDREVVASIRSGGSTNYADSVKGRFTISRDNAKNTGYLQMNWLKPEDTAVYNCAASLLNRISNYDYWGQGTQVTVKS”, the “polyreactivity (PSR sort gate)” value is given as “high polyreactivity”.

For the sequence “QVQLVEAGGGLVQAGGSLRLSCATSGGIFPPNAMGWYRQAPGKERELVASISSDGSTNYADSVKGRFTISRDNAKNTFYLQMISLKPEDTAVYFCAADSTTTWARLHVRRYYYWGQGTQVTVSS”, the “polyreactivity (PSR sort gate)” value is “low polyreactivity”.

For “QVQLVEAGGGLVQAGVSLRLSCAASGSIFGYNAMGWYRQAPGKERELVAAISRRGTRTYYADSVKGRFTISRDTAKNTVYLQMNSLKPEDTAVYYCNASPSLDYDYWGQGTQVTVSS”, the “polyreactivity (PSR sort gate)” value is on record as “high polyreactivity”.

Turning to “QVQLVEAGLGLVQAGGSLRLSCAASGFIFVANAMVWYRQAPGKERELVAAISFSSTSTRYADSVKGRFTISRDNAKNTVYLQMNSLKPEDTAVYYCAVDLTFSEFDYWGQGTQVTVSS”, the “polyreactivity (PSR sort gate)” value was “low polyreactivity”.

In the case of “QVQLVEAGVGLVQAVGSLRLSCAASGYIFVVNAMGWYRQAPGKERELVASITWSGDNTYYADSVKGRFTISRDNAKNTVYLQMNSLKPEDTAVYYCAATIWIAYRGWYSDYNYWGQGTQVTVSS”, the “polyreactivity (PSR sort gate)” value is “low polyreactivity”.

Regarding “QVQLVEKGGGLVQAGGSLRLSCAPSGGLFSKNAMGCYRQAPGKVRELVAGISSGGTTYYADSVKGRFTISRDNAKNTGYLQMNSLKPEDSAVYYCAVPYYRRLGPLNDSWGQGTQVTVSS”, the “polyreactivity (PSR sort gate)” value is reported as “low polyreactivity”.

On to “QVQLVEPGGGLVHAGGSLRLSCAASGRIYYVYAMGWYRQAPGKERELVAGIRSGGSTNYADSVKGRFTISRDNAKNTVYLQMNSLNPEDTAVYYCAVQSYGALSPQLVYRRYDYWGQGTQVTVSS”, for which the “polyreactivity (PSR sort gate)” value is “high polyreactivity”.

Take “QVQLVESAAGLVQAGASLRLSCAPSGRIYRYYAMGWYRQAPGKDRELVAAISSSGGSTYYADSVKGRFSISRDNAKNTVYLQKNSLKPEDTAVYYCAARKASGRFGYWGQGTQVTVSS”: the “polyreactivity (PSR sort gate)” value was “high polyreactivity”.

Consider “QVQLVESAAGLVQAGGCLRLSCAASGRIFGYYAMGGYRKAPGKERELVAAITSGGGTYYADSVKGRFTNSRDNAKNTVYLQMNSLKPEDTAVYFCAADDYFHDDYCGQGTQVTVSS”, for which the “polyreactivity (PSR sort gate)” value is given as “high polyreactivity”.

In the case of “QVQLVESAAGLVQAGGRLRLSCAASGYTFSNYAMGWSRQAPGKERELVAAISRSGGSTYYADSVKGRFTISRDNAKNTVYLQMNSLNPVDTAVYYCAASRSGTYDWGLGTQVTVSS”, the “polyreactivity (PSR sort gate)” value was “high polyreactivity”.

Regarding “QVQLVESAAGLVQAGGSLRLSCAASGRIFRYNTMGWYRQAPGKESELVAAITSGVRTNYADSVKGRFTISRDNAKNTVYLQMNSLKPEDTAVYYCAADPYWFFPNYDSWGQGTQVTVSS”, the “polyreactivity (PSR sort gate)” value is given as “low polyreactivity”.

Regarding “QVQLVESAAGLVQAGGSLRLSCAASGRISHRNAMGWSRQAPGKERELVAAITSGGSTNYADSVKGRFTISRDNAKNTVYLQMNSLKPEDTAVYYCAARRLPSTWYIYWGQGTQVTVSS”, the “polyreactivity (PSR sort gate)” value was “low polyreactivity”.

For “QVQLVESAAGLVQAGGSLRLSCAASGSTFYRYEMGWYRQAPGKERELVATNTSGGSSTYYADSVKGRFTISRDNAKNTVYLQMNSLKPEDTAVYYCAKVYTYSGVNLSSISTPYGYWGQGTQVTVSS”, the “polyreactivity (PSR sort gate)” value was “high polyreactivity”.

“QVQLVESAAGLVQAGGSLRLSCAPSGSTFYLYDMGWYRQAPGKEREFVATITSGTSTTYADSVKGRFTISRDNAKNTVYLQMNSLKPEDTAVYYCNATDVGIITVGYGHGGYYWGQGTQVTVSS”: the “polyreactivity (PSR sort gate)” value is “low polyreactivity”.

On to “QVQLVESAGALVQAGGSLRLSCAASGPTFSHNAMGWDRQAPGKERELVASIRSGGLTDYADSVKGRFTISRDNAKNTVYLQMTSLKPEDSAVFYCIAEGVWWSTRYDSWGQGTQVTVSS”, for which the “polyreactivity (PSR sort gate)” value is “low polyreactivity”.

Turning to “QVQLVESAGGIVQAGGSLRLSCAASESIFETYDMGCYRQAPGTERELVAAITLSGGSTYYADSVKGRFTISRDNAKNTVYLQMNSLKPEDTAVYYCAADDSGVKVWEGDYWGQGTQVTVSS”, the “polyreactivity (PSR sort gate)” value is “low polyreactivity”.

On to “QVQLVESAGGLVLAGGSLRLSCAASGRIFARNAMGWYRQAAGKEREFVAGITWSGSSTYYADSVKARFTISRDNAKNTVYLQMNSLKPEDTAVYYCAVDNYVGSLRIDHDYWGLGTQVTVSS”, for which the “polyreactivity (PSR sort gate)” value is reported as “low polyreactivity”.

As to “QVQLVESAGGLVQAAGSLRLSCDASGFTTYYNAMGWYRQAPGKERELVAAISSSGGSTNYADSVKGRFTISRDNAKNTVYLQMNSLKPEDTAVYYCAARLYGWYYGGYTRYDYWGQGTQVTVSS”, the “polyreactivity (PSR sort gate)” value is “high polyreactivity”.

As for “QVQLVESAGGLVQAGGRLRLSCAASGIIFEQYAMGSYRQAPGKERELVAAISSGCTTYADSVKGRFTISRDNAKNTVYLQMNSLTPEDTAVYYGNADLSWDGPDWSDYEYDYWGQGTQVTVSS”, the “polyreactivity (PSR sort gate)” value is recorded as “low polyreactivity”.

Turning to “QVQLVESAGGLVQAGGRLRLSCAAYGFTFNKYAMGWSRQAPGKEREVVAYISSGDRTYYADSVKGRFTISRDNAKNTVYLQMNSLKPEDTAVYYCNAPYRIILENNNYWGHGTQVTVSS”, the “polyreactivity (PSR sort gate)” value was “high polyreactivity”.

As to “QVQLVESAGGLVQAGGSHRLSCAASGITFYRYVMARYRQAPGKERELVAAITSGGNTYYADSVKGRFTISRDNAKNTFYLQMNRLKPDDTAVYYCAAYFSGPFDYWGQGTQVTVSS”, the “polyreactivity (PSR sort gate)” value is recorded as “high polyreactivity”.

Take “QVQLVESAGGLVQAGGSHRLSFAATGRIFGPNTMGWYRQAPGKERDLVATITGGGGTNYADSVKGRFRISRVNAKYTDYLQMNSLKPVDTAVYYCAADYGGAYEYGYWGQGTQVTVSS”: the “polyreactivity (PSR sort gate)” value is recorded as “low polyreactivity”.

On to “QVQLVESAGGLVQAGGSLPLSCAASGFTFISNAMGWYRQSPAKERELVAAISSSGGRTYYAVSVKGRFTISRDNAKNTVYLQMNSVKPEDTAVYYSNADRSLLYSRKIEYDYWGQGTKVTVSS”, for which the “polyreactivity (PSR sort gate)” value was “low polyreactivity”.

As to “QVQLVESAGGLVQAGGSLRLICAASGSILQPYAMGWYRQAPGKERELVAYISYSGASTYYADSVKGRFTISRDNPKNTVYLQLNSLKPEDPAVYYCNARYWYHYLTYDYSGQGTQVTVSS”, the “polyreactivity (PSR sort gate)” value is “high polyreactivity”.

For “QVQLVESAGGLVQAGGSLRLICAATGLNLYVYVMGWYRQAPGKERELVAAITWSVSRTYYADSVKGRFTISRDNAKNTVYLQMNSLKPEDTAVYYCAARIPSDGYYYWGQGTQVTVSS”, the “polyreactivity (PSR sort gate)” value was “high polyreactivity”.

For “QVQLVESAGGLVQAGGSLRLRSAASGSTIWHNAMGWYRHAPGKERELVAGISGSGGSTYYADSVKGRFTISRDNAKNTVYLEMNSMKPDDTAVYYCATDGRSRVDGVRRGPYDYWGQGTHVTVSS”, the “polyreactivity (PSR sort gate)” value is reported as “low polyreactivity”.

For “QVQLVESAGGLVQAGGSLRLSCAASARTFSAYSMGWYRQAPGKERELVAAISRRGRSTYYADSVKGRFTISRDNAKNTVYLQMTSLKPEDTAVYYCAADVYKQYGYYYWGLGTQVTVSS”, the “polyreactivity (PSR sort gate)” value is recorded as “high polyreactivity”.

For the sequence “QVQLVESAGGLVQAGGSLRLSCAASGFIFGGNAMGWYRQAPGKERELVAAITARSGSTYYADSVKGRFTISRDNAKNTVYLQMNSLKPEDTAVYYCATPVYRSTYEYDYWGQGTQVTVSS”, the “polyreactivity (PSR sort gate)” value was “low polyreactivity”.

As to “QVQLVESAGGLVQAGGSLRLSCAASGFIFSRNAMGWYRQAPGKERELVAVISTSGGSTYYADSVKGRFTISRDNAKNTVYLQMNSLKPEDTAVYYCAARRTRGYEYWGKGTQVTVSS”, the “polyreactivity (PSR sort gate)” value was “high polyreactivity”.

Values taken from the nanobody polyreactivity screen of Harvey et al. (2022).
